Results as given in patent publication US12344663B2, “Anti-C3 antibodies and antigen-binding fragments thereof and their uses for treating eye or ocular diseases” (CDR-Life AG, priority 2021, dated 2025).
Like-named read-outs stand apart in the source and are kept apart here. One block for each molecule: values may come before it.

How the values were obtained:
[1] = tested on: Classical Pathway; assay: WEISLAB Complement system Screen, classical pathway MAC (C5b-C9) formation; type: biochemical, human; conditions: human serum; read-out: IC50 (nM) Classical Pathway MAC deposition
Experimental: (§1) To identify antibodies that block all 3 complement pathways, antibodies are screened using an enzyme immunoassay for the qualitative determination of functional classical, lectin and alternative complement pathways in human serum using the WEISLAB® Complement system Screen (Svar Life Science AB, Malmö, Sweden).
(§2) To monitor inhibition of the complement system in human serum, the scFv of the invention or the comparator molecules are tested using an enzyme immunoassay for the qualitative determination of functional classical, lectin and alternative complement pathways in human serum using the WEISLAB® Complement system Screen (Svar Life Science AB, Malmö, Sweden), following the supplier's instructions. The amount of C5b-C9 neoantigen generated is proportional to the functional activity of complement pathways. The scFv of the invention and the comparator molecules are tested in a concentration response curve and the IC50 for the inhibition is calculated using the GraphPadPrism software and a non-linear, 4 parameters curve regression.

[2] = biological target: T1, human C3b (Homo sapiens, UniProt P01024); assay: SPR (Biacore T100) binding to human C3b; conditions: for kd C3b: off-rate; for ka C3b: on-rate
T1 construct: C3b is derived from native C3 and is the larger of two elements formed by the cleavage of C3
Experimental: (§3) The kinetic parameters of the candidates are determined using a surface plasmon resonance (SPR) and Biacore T100 device. C3 and different variants thereof (Table 19) are immobilized as a ligand on a HC30M SPR sensor chip (XanTec bionanalytics, Germany) using EDC/[…] linking chemistry. Five increasing concentrations of each molecule (analyte) are consecutively injected using the single cycle kinetics (SCK) mode to determine the kinetic parameters. Regeneration between the candidates is done with 10 mM glycine*HCl, 2 M NaCl, pH 3.5. The data is fitted to a 1:1 Langmuir binding model and the kinetic parameters of on-rate (ka), off-rate (kd), and affinity […] were determined.

[3] = biological target: human C3 (Homo sapiens, UniProt P01024); assay: SPR (Biacore T100) binding to human C3; conditions: for kd C3: off-rate; for ka C3: on-rate
Experimental: as §3

[4] = Storage stability at 150 mg/ml, oligomerization by SE-HPLC; type: physicochemical; conditions: decrease in monomeric content versus start
Experimental: (§4) Clone I, clone II and clone III are tested for storage stability. Samples are concentrated to 150 mg/ml (Vivaspin20 centrifugal device, 5 kDa MWCO at 3800×g) and stored at 25° C. and 40° C. for up to 4 weeks. Samples are analyzed for oligomerization (SE-HPLC) and chemical degradation (IEX-HPLC). The starting monomeric purity as determined by SE-HPLC was 99.96% for each clone. The starting charge purity, as determined by IEX-HPLC was 98.07%, 97.16% and 96.76%, respectively for clone I, II and III.

[5] = tested on: Lectin Pathway; assay: WEISLAB Complement system Screen, lectin pathway MAC (C5b-C9) formation; type: biochemical, human; conditions: human serum; read-out: IC50 (nM) Lectin Pathway MAC deposition
Experimental: as §1, §2

[6] = biological target: T2, recombinant C3 (wild-type human C3) (Homo sapiens, UniProt P01024); assay: SPR (Biacore T100) binding to recombinant C3; conditions: for Kd: Table 20, SPR; for kd recombinant C3: off-rate; for ka recombinant C3: on-rate
T2 construct: 6×His (N); made in house; host or cells: CHO (ExpiFectamine CHO Expression Kit)
Experimental: as §3
(§5) Proteins are expressed with N-terminal 6×His tag and purified using a HisTrap Excel HP column (GE Healthcare), followed by a size-exclusion chromatography step (SUPERDEX®20010/300GL; GE Healthcare).

[7] = biological target: T3, human C3 P314L (Homo sapiens, UniProt P01024, P314L); assay: SPR (Biacore T100) binding to C3 SNP1 P314L; conditions: for Kd: Table 20, SPR; for kd C3 SNP1 P314L: off-rate; for ka C3 SNP1 P314L: on-rate
T3 construct: 6×His (N); made in house; host or cells: CHO (ExpiFectamine CHO Expression Kit)
Experimental: as §3
Single nucleotide polymorphism (SNP) in C3 has been observed across the population and certain SNPs were identified in genome-wide association studies (GWAS) to correlate with an increased risk to develop AMD. […] Very rare variants, which occur in less that 2.5% of the population include K155Q, R735W, S1619W, K65Q and R161W.
as §5

[8] = Storage stability at 150 mg/ml, chemical degradation by IEX-HPLC; type: physicochemical; conditions: for Starting charge purity (IEX-HPLC): before storage; for Storage stability, IEX 4 weeks at 25° C. [D %] / Storage stability, IEX 4 weeks at 40° C. [D %]: decrease versus start
Experimental: as §4

[9] = biological target: T4, human C3 R102G (Homo sapiens, UniProt P01024, R102G); assay: SPR (Biacore T100) binding to C3 SNP2 R102G; conditions: for Kd: Table 20, SPR; for kd C3 SNP2 R102G: off-rate; for ka C3 SNP2 R102G: on-rate
T4 construct: 6×His (N); made in house; host or cells: CHO (ExpiFectamine CHO Expression Kit)
Experimental: as §3
Single nucleotide polymorphism (SNP) in C3 has been observed across the population and certain SNPs were identified in genome-wide association studies (GWAS) to correlate with an increased risk to develop AMD. Common SNP variants include P314L, which occurs in approximately 23.3% of population, and R102G, which has been reported to occur in approximately 26-29% of population. Very rare variants, which occur in less that 2.5% of the population include K155Q, R735W, S1619W, K65Q and R161W.
The inventors therefore measured the binding affinity of the scFv of the invention to the most commonly occurring C3 forms, i.e., R102G and P314L. Wild-type human C3, human C3 P314L and human C3 R102G are expressed in the CHO cell line using the ExpiFectamine CHO Expression Kit (Thermo Fisher Scientific). Proteins are expressed with N-terminal 6×His tag and purified using a HisTrap Excel HP column (GE Healthcare), followed by a size-exclusion chromatography step (SUPERDEX®20010/300GL; GE Healthcare).

[10] = biological target: cyno C3; assay: SPR (Biacore T100) binding to cyno C3; design: species or system cynomolgus (Macaca fascicularis); conditions: for Kd: Table 20, SPR; for kd cyno C3: off-rate; for ka cyno C3: on-rate
Experimental: as §3

[11] = Table 19, SPR, read-out: Affinity human C3b
[12] = Table 20, SPR, read-out: KD (nM) C3b
[13] = Table 19, SPR, read-out: Affinity human C3
[14] = Table 20, SPR, read-out: KD (nM) C3

T4 sequence (P01024 23-1663 R102G): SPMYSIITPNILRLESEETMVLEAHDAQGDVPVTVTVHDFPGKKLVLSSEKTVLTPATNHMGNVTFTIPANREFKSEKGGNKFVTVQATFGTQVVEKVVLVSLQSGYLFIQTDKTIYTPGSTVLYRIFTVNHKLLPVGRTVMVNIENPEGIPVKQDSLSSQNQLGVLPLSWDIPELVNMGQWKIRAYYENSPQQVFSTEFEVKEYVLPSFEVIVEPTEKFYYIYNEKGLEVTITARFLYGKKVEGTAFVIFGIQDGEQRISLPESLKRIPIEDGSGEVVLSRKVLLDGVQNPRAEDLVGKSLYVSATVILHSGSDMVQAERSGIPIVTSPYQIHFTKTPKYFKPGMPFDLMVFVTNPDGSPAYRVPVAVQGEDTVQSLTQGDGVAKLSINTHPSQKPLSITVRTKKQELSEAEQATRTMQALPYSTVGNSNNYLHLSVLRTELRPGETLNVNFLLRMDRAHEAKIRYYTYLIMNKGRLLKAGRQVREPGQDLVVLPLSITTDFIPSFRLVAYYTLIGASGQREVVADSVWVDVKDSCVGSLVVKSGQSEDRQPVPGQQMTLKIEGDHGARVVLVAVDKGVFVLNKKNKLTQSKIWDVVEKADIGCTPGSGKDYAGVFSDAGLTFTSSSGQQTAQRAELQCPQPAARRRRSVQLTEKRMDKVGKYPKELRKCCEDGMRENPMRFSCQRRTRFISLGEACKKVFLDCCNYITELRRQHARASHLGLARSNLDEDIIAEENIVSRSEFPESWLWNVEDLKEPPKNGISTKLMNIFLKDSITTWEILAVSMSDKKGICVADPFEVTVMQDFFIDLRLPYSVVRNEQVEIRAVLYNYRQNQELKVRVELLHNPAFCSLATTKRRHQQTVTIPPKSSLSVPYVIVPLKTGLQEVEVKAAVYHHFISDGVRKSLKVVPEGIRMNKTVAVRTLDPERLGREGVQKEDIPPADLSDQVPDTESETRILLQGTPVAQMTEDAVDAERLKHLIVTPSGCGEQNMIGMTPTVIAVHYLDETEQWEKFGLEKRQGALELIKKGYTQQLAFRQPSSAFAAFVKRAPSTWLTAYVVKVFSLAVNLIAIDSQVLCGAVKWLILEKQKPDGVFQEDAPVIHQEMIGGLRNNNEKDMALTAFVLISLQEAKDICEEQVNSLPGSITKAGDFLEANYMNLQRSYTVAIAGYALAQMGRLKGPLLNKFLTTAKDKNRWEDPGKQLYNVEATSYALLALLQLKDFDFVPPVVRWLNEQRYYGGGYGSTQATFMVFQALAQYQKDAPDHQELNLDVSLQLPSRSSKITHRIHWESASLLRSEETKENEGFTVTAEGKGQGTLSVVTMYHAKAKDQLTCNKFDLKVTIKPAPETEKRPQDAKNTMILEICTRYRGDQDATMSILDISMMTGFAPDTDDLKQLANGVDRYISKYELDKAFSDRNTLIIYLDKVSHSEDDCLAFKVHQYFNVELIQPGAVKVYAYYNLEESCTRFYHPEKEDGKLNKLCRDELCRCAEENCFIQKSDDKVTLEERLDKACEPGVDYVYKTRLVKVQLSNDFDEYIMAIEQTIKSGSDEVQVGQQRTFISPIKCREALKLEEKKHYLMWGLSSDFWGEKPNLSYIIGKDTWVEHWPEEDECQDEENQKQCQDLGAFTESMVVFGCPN
T3 sequence (P01024 23-1663 P314L): as the sequence (P01024 23-1663 R102G) above, with G80R, P292L counted along it
Sequence of human C3 (P01024 23-1663): as the sequence (P01024 23-1663 R102G) above, with G80R counted along it
T2 sequence (P01024 23-1663): as the sequence (P01024 23-1663 R102G) above, with G80R counted along it
T1 sequence (P01024 23-667 limits assumed): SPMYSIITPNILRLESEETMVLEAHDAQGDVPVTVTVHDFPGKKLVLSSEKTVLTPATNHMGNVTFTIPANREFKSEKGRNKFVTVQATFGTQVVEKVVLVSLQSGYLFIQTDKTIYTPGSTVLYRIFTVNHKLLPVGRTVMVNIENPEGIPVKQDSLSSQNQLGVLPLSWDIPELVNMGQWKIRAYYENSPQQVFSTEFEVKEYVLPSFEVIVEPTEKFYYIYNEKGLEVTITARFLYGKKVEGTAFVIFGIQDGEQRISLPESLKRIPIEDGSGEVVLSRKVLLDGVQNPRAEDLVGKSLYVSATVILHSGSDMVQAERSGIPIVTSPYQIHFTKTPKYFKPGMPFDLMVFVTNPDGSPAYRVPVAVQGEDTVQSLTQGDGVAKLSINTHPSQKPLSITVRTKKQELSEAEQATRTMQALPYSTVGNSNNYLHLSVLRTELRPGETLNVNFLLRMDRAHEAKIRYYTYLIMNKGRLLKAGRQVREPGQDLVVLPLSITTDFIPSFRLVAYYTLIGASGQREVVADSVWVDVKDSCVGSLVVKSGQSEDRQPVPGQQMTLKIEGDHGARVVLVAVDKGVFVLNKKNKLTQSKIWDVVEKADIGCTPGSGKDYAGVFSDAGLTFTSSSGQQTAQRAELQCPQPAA
T1 sequence (P01024 749-1663 limits assumed): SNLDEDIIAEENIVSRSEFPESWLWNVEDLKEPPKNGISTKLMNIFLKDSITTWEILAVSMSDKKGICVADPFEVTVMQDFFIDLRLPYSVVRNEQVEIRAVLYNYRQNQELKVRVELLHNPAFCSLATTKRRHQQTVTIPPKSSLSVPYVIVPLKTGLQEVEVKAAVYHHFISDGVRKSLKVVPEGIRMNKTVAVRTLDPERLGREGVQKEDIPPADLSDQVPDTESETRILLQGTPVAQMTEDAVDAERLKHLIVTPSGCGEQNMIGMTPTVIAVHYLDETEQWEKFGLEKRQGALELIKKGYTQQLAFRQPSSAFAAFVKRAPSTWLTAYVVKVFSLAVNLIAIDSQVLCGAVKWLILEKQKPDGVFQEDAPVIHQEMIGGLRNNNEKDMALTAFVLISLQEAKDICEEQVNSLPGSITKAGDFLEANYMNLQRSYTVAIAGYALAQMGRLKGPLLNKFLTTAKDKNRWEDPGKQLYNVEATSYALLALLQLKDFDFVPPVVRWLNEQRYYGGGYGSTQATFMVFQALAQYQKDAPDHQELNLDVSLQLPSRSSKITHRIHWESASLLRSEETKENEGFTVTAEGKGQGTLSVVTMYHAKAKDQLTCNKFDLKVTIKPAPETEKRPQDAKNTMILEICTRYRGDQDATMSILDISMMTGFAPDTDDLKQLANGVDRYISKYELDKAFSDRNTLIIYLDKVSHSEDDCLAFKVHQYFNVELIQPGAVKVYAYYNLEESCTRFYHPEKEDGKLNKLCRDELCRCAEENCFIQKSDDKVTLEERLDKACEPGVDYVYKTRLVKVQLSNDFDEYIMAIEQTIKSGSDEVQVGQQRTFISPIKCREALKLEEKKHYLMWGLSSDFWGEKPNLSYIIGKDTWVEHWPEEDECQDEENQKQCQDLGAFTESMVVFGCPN

- IC50 [1]: 79 nM
- Kd ([2]; Table 16, read-out: C3b (Kd)): 0.14 nM
- Kd [2, 11]: 0.149 nM
- Kd [2, 12]: 0.149 nM
- kd C3b [2]: 4.8e-05 s⁻¹
- ka C3b [2]: 320000 M⁻¹ s⁻¹
- Kd ([3]; Table 16, read-out: C3 (Kd)): 0.16 nM
- Kd [3, 13]: 0.152 nM
- Kd [3, 14]: 0.152 nM
- kd C3 [3]: 4.7e-05 s⁻¹
- ka C3 [3]: 310000 M⁻¹ s⁻¹
- IC50 [5]: 67 nM
- Kd [6]: 0.148 nM
- kd recombinant C3 [6]: 4.9e-05 s⁻¹
- ka recombinant C3 [6]: 330000 M⁻¹ s⁻¹
- Kd [7]: 0.14 nM
- kd C3 SNP1 P314L [7]: 4.2e-05 s⁻¹
- ka C3 SNP1 P314L [7]: 300000 M⁻¹ s⁻¹
- Kd [9]: 0.135 nM
- kd C3 SNP2 R102G [9]: 4.5e-05 s⁻¹
- ka C3 SNP2 R102G [9]: 330000 M⁻¹ s⁻¹
- Kd [10]: 0.267 nM
- kd cyno C3 [10]: 6.3e-05 s⁻¹
- ka cyno C3 [10]: 240000 M⁻¹ s⁻¹
B1: Clone I: humanized anti-C3 scFv, VH SEQ ID NO: 20, VL SEQ ID NO: 21; scFv SEQ ID NO: 26 or 27 (antibody, V domains shown)
VH: QVQLVESGGGSVQPGRSLRLSCAASGFTFSNYAMNWVRQAPGKGLEWVAVISYDGSNKYYADSVKGRFTISRDNSKNTLYLQMNSLRAEDTASYYCARAVGYHHARLDPWGCGTSVTVSS
VL: QLVLTQSPSASASLGASVKLTCTLSSAHKTYTIDWYQQQPEKCPRYLMQLKSDGSYTKGSGIPDRFSGSSSGAERYLTISSLQSEDEADYYCGTEGVGGYVFGGGTKLTVLG
modifications: VH; VL
- Storage stability, SEC 4 weeks at 25° C. [D %] [4]: 0.06 D %
- Storage stability, SEC 4 weeks at 40° C. [D %] [4]: 0.37 D %
- Starting charge purity (IEX-HPLC) [8]: 98.07%
- Storage stability, IEX 4 weeks at 25° C. [D %] [8]: 1.1 D %
- Storage stability, IEX 4 weeks at 40° C. [D %] [8]: 2.4 D %

- IC50 [1]: 77 nM
- Kd [2, 11]: 0.05 nM
- Kd [2, 12]: 0.05 nM
- kd C3b [2]: 1.2e-05 s⁻¹
- ka C3b [2]: 250000 M⁻¹ s⁻¹
- Kd [3, 13]: 0.022 nM
- Kd [3, 14]: 0.022 nM
- kd C3 [3]: 5.5e-06 s⁻¹
- ka C3 [3]: 250000 M⁻¹ s⁻¹
- IC50 [5]: 71 nM
- Kd [6]: 0.035 nM
- kd recombinant C3 [6]: 1e-05 s⁻¹
- ka recombinant C3 [6]: 300000 M⁻¹ s⁻¹
- Kd [7]: < 0.04 nM
- kd C3 SNP1 P314L [7]: <1.1e-05 s⁻¹
- ka C3 SNP1 P314L [7]: 290000 M⁻¹ s⁻¹
- Kd [9]: 0.021 nM
- kd C3 SNP2 R102G [9]: 7e-06 s⁻¹
- ka C3 SNP2 R102G [9]: 330000 M⁻¹ s⁻¹
- Kd [10]: 0.07 nM
- kd cyno C3 [10]: 1.5e-05 s⁻¹
- ka cyno C3 [10]: 210000 M⁻¹ s⁻¹
B2: Clone II: humanized anti-C3 scFv, VH SEQ ID NO: 22, VL SEQ ID NO: 23; scFv SEQ ID NO: 28 or 29 (antibody, V domains shown)
VH: QVQLVESGGGSVQPGRSLRLSCAASGFTFSNYAMNWVRQAPGKGLEWVAIINVGGGTNYADSVKGRFTISRDNSKNTLYLQMNSLRAEDTASYYCARAVGYHHARLDPWGCGTSVTVSS
VL: B1 VL
modifications: VH; VL
- Storage stability, SEC 4 weeks at 25° C. [D %] [4]: 0.11 D %
- Storage stability, SEC 4 weeks at 40° C. [D %] [4]: 1.59 D %
- Starting charge purity (IEX-HPLC) [8]: 97.16%
- Storage stability, IEX 4 weeks at 25° C. [D %] [8]: 0.5 D %
- Storage stability, IEX 4 weeks at 40° C. [D %] [8]: 3.3 D %
